Results: patent US20240254204A1 (NATIONAL UNIVERSITY OF SINGAPORE, published 2024)
Changes are numbered by the printed parent chain. Where “and” joins values, the source holds several entries; their conditions need not be identical. Identical values can stand only once.

B1: Antibody 11 (SS6V11-E7) (antibody, V domains shown)
VH: QVQLQESGPGLVKPSETLSLTCTVSGGFIGPHYWSWVRQPPGKGLEWIGYIYISGSTNYNPSLKSRLTISVDMSKSQFSLTLSSATAADTAVYYCARGGGYLETGPFEYWGQGTLVTVSS
VL: DIVMTQSPLSLPVTPGEPASISCRSSQSLLQNNGYNYLAWYLQKPGQSPQLLIYLSSTRASGVPDRFSGSGSGTDFTLKISRVEAEDVGVYYCMQSLQIPGTFGQGTRLEIK
B2: Antibody 13 (SS6V13-F1) (antibody, V domains shown)
VH: QVQLQESGPGLVKPSETLSLTCSVSGVSILGSYWGWIRQPPGTGLQWIGYIYFSENTNYNPSLQSRVTMSLDTSKNLLSLKLSSVTAADTAVYYCARGGGYLETGPFDSWGQGTLVTVSS
VL: B1 VL with S28G, L30V, N32S, S56G, T58N, S96G, I99T
B3: Antibody 20 (SS6V20-F5) (antibody, V domains shown)
VH: QVQLQESGPGLVKPSETLSLTCTVSGGSIIGYYWSWIRQPPGKGLEWIGYIYFSANTNYNPSLKSRVTMSVDMSKKQFSLKLRSVTAADTAVYYCARGGGYLETGPLDFWGQGILVTVSS
VL: B1 VL with L30M, N32L, K44R, S56G, S81T, S96G

Target: SARS-COV-2 Delta full-length spike (SARS-CoV-2 Delta)
Test: cell-based or functional assay

Binder	pseudovirus neutralization NT50
B1	< 10 ng/ml and < 0.067 nM
B2	< 10 ng/ml and < 0.067 nM
B3	< 10 ng/ml and < 0.067 nM

Target: SARS-COV-2 Gamma full-length spike (SARS-CoV-2 Gamma)
Test: cell-based or functional assay

Binder	pseudovirus neutralization NT50
B1	< 10 ng/ml and < 0.067 nM
B2	< 10 ng/ml and < 0.067 nM
B3	< 10 ng/ml and < 0.067 nM

Target: SARS-COV-2 Alpha full-length spike (SARS-CoV-2 Alpha)
Test: cell-based or functional assay

Binder	pseudovirus neutralization NT50
B1	< 10 ng/ml and < 0.067 nM
B2	< 10 ng/ml and < 0.067 nM
B3	< 10 ng/ml and < 0.067 nM

Target: SARS-COV-2 Beta full-length spike (SARS-CoV-2 Beta)
Test: cell-based or functional assay

Binder	pseudovirus neutralization NT50
B1	< 10 ng/ml and < 0.067 nM
B2	< 10 ng/ml and < 0.067 nM
B3	< 10 ng/ml and < 0.067 nM
